Measurements as given in US20170327535A1.

What was measured:
[1] = target: aIgE-Fab (Fab fragment of Omalizumab, Xolair); experiment: SPR Biacore 3000, Fab on CM5 chip, peptide analyte, 1:1 fit
[2] = target: aRSV-Fab (Fab fragment of Palivizumab, Synagis); experiment: as above
[3] = target: aTNFa-Fab (Fab fragment of Infliximab, Remicade); experiment: as above
[4] = target: aTNFa-Fab (Fab fragment of Infliximab, Remicade); experiment: dynamic binding capacity on a 1 mL-gel column, 1 mg/mL aTNFa-Fab at […], 55% breakthrough

Substance | Ka [1] | Ka [2] | Ka [3] | 55% DBC [4]
LB1t-Wild.1d (B1 domain of PpL312 with deletion of the N-terminal region) | 1.12e+09 M⁻¹ | 4.4e+06 M⁻¹ | 30000 M⁻¹ | –
LB3t-Wild.1d (B3 domain of PpL312 with deletion of the N-terminal region) | 3.77e+08 M⁻¹ | – | – | –
LB4t-Wild.1d (B4 domain of PpL312 with deletion of the N-terminal region) | 1.08e+09 M⁻¹ | 1.38e+07 M⁻¹ | 300000 M⁻¹ | –
LC4t-Wild.1d (C4 domain of PpL3316 with deletion of the N-terminal region) | 4.18e+09 M⁻¹ | 1.93e+07 M⁻¹ | – | –

Other lines, results leading:

Ka [1] | Ka [2] | Ka [3] | 55% DBC [4] | Substance
– | 1e+06 M⁻¹ | – | – | LB2t-Wild.1d (B2 domain of PpL312 with deletion of the N-terminal region)
4.43e+08 M⁻¹ | – | 700000 M⁻¹ | – | LB5t-Wild.1d (B5 domain of Protein L of Peptostreptococcus magnus 312 strain with deletion of the N-terminal region, single domain)
2.71e+07 M⁻¹ | 2.3e+06 M⁻¹ | – | – | LC1t-Wild.1d (C1 domain of PpL3316 with deletion of the N-terminal region)
– | 9.2e+06 M⁻¹ | – | – | LC2t-Wild.1d (C2 domain of PpL3316 with deletion of the N-terminal region)
– | 8.7e+06 M⁻¹ | – | – | LC3t-Wild.1d (C3 domain of PpL3316 with deletion of the N-terminal region)
– | – | – | 4.8 mg/mL/gel | commercially available Protein L carrier (HiTrap Protein L, GE Healthcare Bioscience)
